Reference: patent US20140087995A1 (published 2014)
Numbered stars: 1 amine (or outer) side, 2 acyl side, 3 side chain; on linkers, the order of the positions; unused ones are H or OH. Bridge positions count the residues as written; N and C are the ends. Side chains are listed from the residue outwards. Ends that are not written are not given here. * marks the point of attachment. C20 diacid = O=C(O)CCCCCCCCCCCCCCCCCCC(=O)*; γGlu = O=C(O)[C@H](CCC(=O)[*:2])N[*:1]; AEEA = NCCOCCOCC(=O)O

B1: N^ε1-[2-[2-[2-[[(4S)-4-carboxy-4-(19-carboxynonadecanoylamino)butanoyl]amino]ethoxy]ethoxy]acetyl]-[His14,Arg17,Pro21,Pro27,Arg34]-h-amylin (peptide)
peptide: K([AEEA-γGlu-C20 diacid])CNTATCATQRLAHFLRHSSPNFGAIPSSTNVGRNTY-NH2
modifications: disulfide 2-7; N-terminus assumed
SMILES: CC[C@H](C)[C@H](NC(=O)[C@H](C)NC(=O)CNC(=O)[C@H](Cc1ccccc1)NC(=O)[C@H](CC(N)=O)NC(=O)[C@@H]1CCCN1C(=O)[C@H](CO)NC(=O)[C@H](CO)NC(=O)[C@H](Cc1c[nH]cn1)NC(=O)[C@H](CCCNC(=N)N)NC(=O)[C@H](CC(C)C)NC(=O)[C@H](Cc1ccccc1)NC(=O)[C@H](Cc1c[nH]cn1)NC(=O)[C@H](C)NC(=O)[C@H](CC(C)C)NC(=O)[C@H](CCCNC(=N)N)NC(=O)[C@H](CCC(N)=O)NC(=O)[C@@H](NC(=O)[C@H](C)NC(=O)[C@@H]1CSSC[C@H](NC(=O)[C@@H](N)CCCCNC(=O)COCCOCCNC(=O)CC[C@H](NC(=O)CCCCCCCCCCCCCCCCCCC(=O)O)C(=O)O)C(=O)N[C@@H](CC(N)=O)C(=O)N[C@@H]([C@@H](C)O)C(=O)N[C@@H](C)C(=O)N[C@@H]([C@@H](C)O)C(=O)N1)[C@@H](C)O)C(=O)N1CCC[C@H]1C(=O)N[C@@H](CO)C(=O)N[C@@H](CO)C(=O)N[C@H](C(=O)N[C@@H](CC(N)=O)C(=O)N[C@H](C(=O)NCC(=O)N[C@@H](CCCNC(=N)N)C(=O)N[C@@H](CC(N)=O)C(=O)N[C@H](C(=O)N[C@@H](Cc1ccc(O)cc1)C(N)=O)[C@@H](C)O)C(C)C)[C@@H](C)O
notes: Analogue of human amylin; disulfide and C-terminal amide as told for h-amylin; also called compound 84
B2: N^ε1-[2-[2-[2-[[(4S)-4-carboxy-4-(19-carboxynonadecanoylamino)butanoyl]amino]ethoxy]ethoxy]acetyl]-[His14,Arg17,Pro21,Pro27,His34]-h-amylin (peptide)
peptide: K([AEEA-γGlu-C20 diacid])CNTATCATQRLAHFLRHSSPNFGAIPSSTNVGHNTY-NH2
modifications: disulfide 2-7; N-terminus assumed
SMILES: CC[C@H](C)[C@H](NC(=O)[C@H](C)NC(=O)CNC(=O)[C@H](Cc1ccccc1)NC(=O)[C@H](CC(N)=O)NC(=O)[C@@H]1CCCN1C(=O)[C@H](CO)NC(=O)[C@H](CO)NC(=O)[C@H](Cc1c[nH]cn1)NC(=O)[C@H](CCCNC(=N)N)NC(=O)[C@H](CC(C)C)NC(=O)[C@H](Cc1ccccc1)NC(=O)[C@H](Cc1c[nH]cn1)NC(=O)[C@H](C)NC(=O)[C@H](CC(C)C)NC(=O)[C@H](CCCNC(=N)N)NC(=O)[C@H](CCC(N)=O)NC(=O)[C@@H](NC(=O)[C@H](C)NC(=O)[C@@H]1CSSC[C@H](NC(=O)[C@@H](N)CCCCNC(=O)COCCOCCNC(=O)CC[C@H](NC(=O)CCCCCCCCCCCCCCCCCCC(=O)O)C(=O)O)C(=O)N[C@@H](CC(N)=O)C(=O)N[C@@H]([C@@H](C)O)C(=O)N[C@@H](C)C(=O)N[C@@H]([C@@H](C)O)C(=O)N1)[C@@H](C)O)C(=O)N1CCC[C@H]1C(=O)N[C@@H](CO)C(=O)N[C@@H](CO)C(=O)N[C@H](C(=O)N[C@@H](CC(N)=O)C(=O)N[C@H](C(=O)NCC(=O)N[C@@H](Cc1c[nH]cn1)C(=O)N[C@@H](CC(N)=O)C(=O)N[C@H](C(=O)N[C@@H](Cc1ccc(O)cc1)C(N)=O)[C@@H](C)O)C(C)C)[C@@H](C)O
notes: Analogue of human amylin; disulfide and C-terminal amide as told for h-amylin; also called compound 80
B3: N^ε1-[2-[2-[2-[[(4S)-4-carboxy-4-(19-carboxynonadecanoylamino)butanoyl]amino]ethoxy]ethoxy]acetyl]-[Lys14,Arg17,Pro21,Pro27,Pro31]-h-amylin (peptide)
peptide: K([AEEA-γGlu-C20 diacid])CNTATCATQRLAKFLRHSSPNFGAIPSSTPVGSNTY-NH2
modifications: disulfide 2-7; N-terminus assumed
SMILES: CC[C@H](C)[C@H](NC(=O)[C@H](C)NC(=O)CNC(=O)[C@H](Cc1ccccc1)NC(=O)[C@H](CC(N)=O)NC(=O)[C@@H]1CCCN1C(=O)[C@H](CO)NC(=O)[C@H](CO)NC(=O)[C@H](Cc1c[nH]cn1)NC(=O)[C@H](CCCNC(=N)N)NC(=O)[C@H](CC(C)C)NC(=O)[C@H](Cc1ccccc1)NC(=O)[C@H](CCCCN)NC(=O)[C@H](C)NC(=O)[C@H](CC(C)C)NC(=O)[C@H](CCCNC(=N)N)NC(=O)[C@H](CCC(N)=O)NC(=O)[C@@H](NC(=O)[C@H](C)NC(=O)[C@@H]1CSSC[C@H](NC(=O)[C@@H](N)CCCCNC(=O)COCCOCCNC(=O)CC[C@H](NC(=O)CCCCCCCCCCCCCCCCCCC(=O)O)C(=O)O)C(=O)N[C@@H](CC(N)=O)C(=O)N[C@@H]([C@@H](C)O)C(=O)N[C@@H](C)C(=O)N[C@@H]([C@@H](C)O)C(=O)N1)[C@@H](C)O)C(=O)N1CCC[C@H]1C(=O)N[C@@H](CO)C(=O)N[C@@H](CO)C(=O)N[C@H](C(=O)N1CCC[C@H]1C(=O)N[C@H](C(=O)NCC(=O)N[C@@H](CO)C(=O)N[C@@H](CC(N)=O)C(=O)N[C@H](C(=O)N[C@@H](Cc1ccc(O)cc1)C(N)=O)[C@@H](C)O)C(C)C)[C@@H](C)O
notes: Analogue of human amylin; disulfide and C-terminal amide as told for h-amylin; Acylation site is 1K, not Lys14; also called compound 74
B4: N^ε1-[2-[2-[2-[[(4S)-4-carboxy-4-(19-carboxynonadecanoylamino)butanoyl]amino]ethoxy]ethoxy]acetyl]-[His14,Arg17,Pro21,Pro27,Pro34]-h-amylin (peptide)
peptide: K([AEEA-γGlu-C20 diacid])CNTATCATQRLAHFLRHSSPNFGAIPSSTNVGPNTY-NH2
modifications: disulfide 2-7; N-terminus assumed
SMILES: CC[C@H](C)[C@H](NC(=O)[C@H](C)NC(=O)CNC(=O)[C@H](Cc1ccccc1)NC(=O)[C@H](CC(N)=O)NC(=O)[C@@H]1CCCN1C(=O)[C@H](CO)NC(=O)[C@H](CO)NC(=O)[C@H](Cc1c[nH]cn1)NC(=O)[C@H](CCCNC(=N)N)NC(=O)[C@H](CC(C)C)NC(=O)[C@H](Cc1ccccc1)NC(=O)[C@H](Cc1c[nH]cn1)NC(=O)[C@H](C)NC(=O)[C@H](CC(C)C)NC(=O)[C@H](CCCNC(=N)N)NC(=O)[C@H](CCC(N)=O)NC(=O)[C@@H](NC(=O)[C@H](C)NC(=O)[C@@H]1CSSC[C@H](NC(=O)[C@@H](N)CCCCNC(=O)COCCOCCNC(=O)CC[C@H](NC(=O)CCCCCCCCCCCCCCCCCCC(=O)O)C(=O)O)C(=O)N[C@@H](CC(N)=O)C(=O)N[C@@H]([C@@H](C)O)C(=O)N[C@@H](C)C(=O)N[C@@H]([C@@H](C)O)C(=O)N1)[C@@H](C)O)C(=O)N1CCC[C@H]1C(=O)N[C@@H](CO)C(=O)N[C@@H](CO)C(=O)N[C@H](C(=O)N[C@@H](CC(N)=O)C(=O)N[C@H](C(=O)NCC(=O)N1CCC[C@H]1C(=O)N[C@@H](CC(N)=O)C(=O)N[C@H](C(=O)N[C@@H](Cc1ccc(O)cc1)C(N)=O)[C@@H](C)O)C(C)C)[C@@H](C)O
notes: Analogue of human amylin; disulfide and C-terminal amide as told for h-amylin; also called compound 68

target: T1, human calcitonin receptor (human, UniProt P30988 25-474); experiment: ratio of binding IC50 at human calcitonin receptor to IC50 at human amylin receptor (reference)
T1 construct: whole, on cells; Used as membranes prepared from the transfected cells; also called hCTR; hCT
T1 sequence (looked up): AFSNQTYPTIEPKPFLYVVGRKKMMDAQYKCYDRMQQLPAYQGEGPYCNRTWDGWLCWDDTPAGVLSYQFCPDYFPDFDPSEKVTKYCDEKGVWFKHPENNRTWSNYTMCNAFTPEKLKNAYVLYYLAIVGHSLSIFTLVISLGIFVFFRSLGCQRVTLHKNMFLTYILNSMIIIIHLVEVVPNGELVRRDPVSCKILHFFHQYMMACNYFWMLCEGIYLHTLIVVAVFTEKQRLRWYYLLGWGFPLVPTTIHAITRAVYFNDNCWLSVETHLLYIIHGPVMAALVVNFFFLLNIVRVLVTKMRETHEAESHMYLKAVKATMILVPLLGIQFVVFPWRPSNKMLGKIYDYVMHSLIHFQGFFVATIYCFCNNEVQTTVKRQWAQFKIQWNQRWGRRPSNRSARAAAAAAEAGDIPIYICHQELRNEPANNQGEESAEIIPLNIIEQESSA
Experimental: The resulting pellet was resuspended, homogenized and centrifuged (20.000 rpm, 15 min) in a buffer containing 20 mM Na-HEPES and 0.1 mM EDTA (pH 7.4, buffer 2). The resulting pellet was resuspended in buffer 2 and protein concentration was measured (BCA protein Assay, Pierce). The homogenate was kept cold during the whole procedure. The membranes were kept at −80° C. until use. The assay was performed in a 384 well Optiplate (PerkinElmer) in a total volume of 40 ul. Membranes were mixed with SPA beads. Final concentration of membranes 35 ng/μL final and SPA beads was 0.05 mg/well. Test-compounds were dissolved in DMSO and further diluted in assay buffer (50 mM Hepes, pH 7.4, 1 mM CaCl2, 5 mM MgCl₂, 0.1% OA and 0.02% Tween20). […] The final mixture was incubated with shaking at 400 rpm for 120 min at 25° C. prior to centrifugation (1500 rpm, 10 min). Samples were analyzed on TopCounter™ (Packard). The IC₅₀ was calculated using (one site binding competition analysis) GraphPad Prism5 as a measure of receptor affinity.
Membranes were prepared in the following way; the cells were rinsed with PBS and incubated with Versene for approximately 5 min before harvesting. The cells were flushed with PBS and the cell-suspension was centrifuged for 5 min at 1000 rpm. Cells were homogenized (Ultrathurrax) in a buffer containing 20 mM Na-HEPES and 10 mM EDTA (pH 7.4) and centrifuged at 20.000 rpm for 15 min. The resulting pellet was resuspended, homogenized and centrifuged (20.000 rpm, 15 min) in a buffer containing 20 mM Na-HEPES and 0.1 mM EDTA (pH 7.4, buffer 2). The resulting pellet was resuspended in buffer 2 and protein concentration was measured (BCA protein Assay, Pierce). The homogenate was kept cold during the whole procedure. The membranes were kept at −80° C. until use. Assay was performed in a 384 well Optiplate (PerkinElmer) in a total volume of 40 ul. Membranes were mixed with SPA beads.

Binder	Ratio hCT/hAmylin binding
B1	120
B2	68.1
B3	101
B4	64.4

target: T2, rat calcitonin receptor (rat, UniProt P32214 25-516); experiment: ratio of binding IC50 at rat calcitonin receptor to IC50 at rat amylin receptor (reference)
T2 construct: whole, on cells; Used as membranes prepared from the transfected cells; also called rCTR; rCT
T2 sequence (looked up): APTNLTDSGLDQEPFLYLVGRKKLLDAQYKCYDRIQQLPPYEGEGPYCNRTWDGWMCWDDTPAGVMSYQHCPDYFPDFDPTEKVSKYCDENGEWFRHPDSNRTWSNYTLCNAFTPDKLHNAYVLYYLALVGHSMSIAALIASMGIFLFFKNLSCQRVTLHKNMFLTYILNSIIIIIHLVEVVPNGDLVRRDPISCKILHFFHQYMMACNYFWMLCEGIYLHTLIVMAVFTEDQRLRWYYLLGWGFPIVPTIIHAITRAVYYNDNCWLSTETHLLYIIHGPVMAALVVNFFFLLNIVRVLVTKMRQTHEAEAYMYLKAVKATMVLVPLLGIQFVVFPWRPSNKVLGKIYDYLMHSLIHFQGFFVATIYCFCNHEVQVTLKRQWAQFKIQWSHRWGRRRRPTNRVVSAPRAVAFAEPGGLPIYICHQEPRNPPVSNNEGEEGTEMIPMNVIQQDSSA

Binder	Ratio rCT/rAmylin binding
B1	94.3
B2	36.2
B3	22.3
B4	122

target: T2, rat calcitonin receptor; experiment: SPA competition with 125I-calcitonin, membranes with rat calcitonin receptor (Assay VIII)

Binder	IC50
B1	477 nM
B2	60.4 nM
B3	109 nM
B4	28.5 nM
